The text below walks through data of the RNAGym collection of RNA variant scans (doi:10.1021/acssynbio.7b00057).

B1: Pistol ribozyme (parent)
chain: GGGUCGUUGUUCCAUAAUCGCGUGGAUAUGGCACGCAAGUUUCUACCGGGCACCGUAAAUGUCCGACUGGAGCCGUUCGGGCGGCUAUAAACAGACCUCAGGCCCGAAGCGUGGCGGCACCUGCCGCCGGUGGUAAAAAAGAUCGGAAGAGCACACGUCU

Variants of B1 are the subject of this series. The series is described as follows: aptazyme ON/OFF ratio, guanine; higher = stronger switching; co-transcriptional cleavage with and without guanine.
Turning to U7C U8G G9A U10A U11C C12A, the “aptazyme ON/OFF ratio” value was determined as 1.21.
In the case of U8C G9C U10C U11G C13G it was 1.31; in that of U8C G9C U10C U11G C13A, 1.14; in that of U7C U8A G9C U11A C12A C13A, 1.11.
For U7G U8G G9C U10C U11C C13U, the “aptazyme ON/OFF ratio” value amounted to 1.07.
U7G G9A U10A C12A: the “aptazyme ON/OFF ratio” value is 1.2.
In the case of U8C U10C C12U it was 2.98; in that of U7G U8A C12G C13A, 1.51.
In the case of U7C U8C U10G U11C C12G C13G it was 1.13.
In the case of U7C U10A U11A C12A C13A, the “aptazyme ON/OFF ratio” value is 1.17.
Take U8A G9C U10G U11C C13U: the “aptazyme ON/OFF ratio” value amounted to 1.03.
In the case of U7C U8G G9A U10C C12G C13U, the “aptazyme ON/OFF ratio” value is 1.31.
On to U7C U8A G9C U10G C12G C13A, for which the “aptazyme ON/OFF ratio” value amounted to 1.32.
U7C U8A G9C U10G C12G C13U: the “aptazyme ON/OFF ratio” value was 1.15.
Consider U7A U8G U10A C12U C13A, for which the “aptazyme ON/OFF ratio” value was 1.32.
For the variant U7G U8G G9A U10C U11A C12U C13A, the “aptazyme ON/OFF ratio” value came out at 1.06.
Turning to U7A U8C G9U U11G C13A, the “aptazyme ON/OFF ratio” value is 1.2.
With U8C U11G C12U the figure was 1.26; with U7G U8G G9A C12A C13U, 1.49.
In the case of U7C U8C G9A U10G U11G C12G C13G it was 1.14; in that of U8A U11A C13G, 1.05.
On to U7C U8C U11C C12U, for which the “aptazyme ON/OFF ratio” value came to 1.34.
In the case of U7A U8G U10A U11A C12G C13A it was 1.56; in that of U8A G9A U10A U11C, 1.05; in that of U7G G9C U10A C13G, 1.07.
With U7A U8A G9A U10A C12A C13U the figure was 1.09; with U7A U8G U11G C13A, 1.26; with U7C U8C G9C U10A U11G C12G C13A, 1.15.
As for U7C U8G G9C U10A U11C C12U C13G, the “aptazyme ON/OFF ratio” value was found to be 1.12.
With G9C U10C U11A C12A C13A, the “aptazyme ON/OFF ratio” value was 1.06.
Consider U7A U10G U11C C12G C13G, for which the “aptazyme ON/OFF ratio” value came out at 1.11.
For the variant U8C U10G U11A, the “aptazyme ON/OFF ratio” value is 1.07.
As for U8C U10C C13A, the “aptazyme ON/OFF ratio” value was 1.07.
Turning to G9C U11G C12A C13U, the “aptazyme ON/OFF ratio” value amounted to 1.13.
Regarding U7A U11C C12A C13U, the “aptazyme ON/OFF ratio” value amounted to 1.19.
With U7G U8G U10C C12G the figure was 1.09; with U8A U11G C12A, 1.09.
As to U8G G9A U10G U11G C12A C13G, the “aptazyme ON/OFF ratio” value was found to be 1.16.
In the case of U8G G9U U10G C12A C13G it was 1.04.
With U7C U10A U11A C12U C13A the figure was 1.28; with U7A G9C C12A, 1.06.
Regarding U7A U8C C12A C13G, the “aptazyme ON/OFF ratio” value turned out to be 1.11.
In the case of U7A U8C G9C U11C C12G C13G it was 1.13; in that of U8G G9C U10A U11C C12G C13A, 1.05; in that of U8G G9C U10C U11G C12U C13A, 1.04.
In the case of U7G U8G G9C C12A it was 1.22; in that of U7C U8A G9U U10C U11C C13G, 1.03.
In the case of U7A U8A U10A C12U C13A, the “aptazyme ON/OFF ratio” value is 1.28.
With U7C G9U U10G, the “aptazyme ON/OFF ratio” value came out at 1.38.
In the case of U7A U8A U10A U11A C12U it was 1.2.
On to U8G U10A U11C, for which the “aptazyme ON/OFF ratio” value amounted to 1.02.
In the case of U7A U8G U10G U11A C12U it was 1.33; in that of U7G U8C G9C U10C U11G C12U C13A, 1.08.
With U7G U8A U10A U11A C12U C13G the figure was 1.29; with U7C U8G G9U U10A C12U C13U, 1.35.
In the case of U7C U8C G9A U10C U11C C12U C13G it was 1.24; in that of U7C U8A G9A U10G U11G C13U, 1.04.
For U7A U8A G9U U10C U11C C12G C13A, the “aptazyme ON/OFF ratio” value came out at 1.07.
With U7G U8A G9A U10A C12U C13U the figure was 1.03; with U7C U8C G9A U11G C12A C13A, 1.3.
As to U8A G9A U10A U11C C12G C13U, the “aptazyme ON/OFF ratio” value came out at 1.25.
With U7G G9C U10C C12A C13U the figure was 1.36; with U7C U8A G9U U10G U11A C12U C13G, 1.11; with U7C U8C U10C U11C C12U C13G, 1.15.
With U7C U8C G9U U10C C12G the figure was 1.22; with U7A U8C U10G C12A C13G, 1.05.
As for G9U U10C U11G C13G, the “aptazyme ON/OFF ratio” value was found to be 1.18.
In the case of U7C G9C U10C U11C C13U it was 1.01.
With U7G U10C C13U the figure was 1.03; with U8C G9C U10C C12A C13A, 1; with U8G G9C U10C U11C C12A, 1.05.
With U8A G9A U10G U11A C13G the figure was 1.02.
With U7C U8C G9U U10G U11G C13A, the “aptazyme ON/OFF ratio” value came out at 1.1.
With U7G U8A G9A U10G U11C C12U C13U the figure was 1.1; with U8A G9C U10A U11G C12G, 1.18.
With U7G U8A G9U U10A C12U the figure was 1.03.
Consider U7G U8C G9A U10A U11G C12A, for which the “aptazyme ON/OFF ratio” value was found to be 1.06.
In the case of U7G U8C G9U U10G C12A it was 1.58; in that of U10A U11G C12U C13A, 1.62; in that of U7G U8G U11G C12G C13G, 1.21.
In the case of U7C U8G G9U U11C C12G C13A it was 1.26; in that of U8A U10G C12U C13A, 1.32.
Take U7C U8A G9U U10C U11G C12G C13A: the “aptazyme ON/OFF ratio” value amounted to 1.16.
For U7G U8A U11G C13A, the “aptazyme ON/OFF ratio” value was determined as 1.2.
